The record followed here is the supplement of paper PMC12042874.

± gives the uncertainty stated by the source.

This data set in a line: amyloid nucleation score (Sup35N fusion, yeast selection) (log enrichment); library NNK3; higher = more nucleation; inactive = no reads after selection. Put shortly: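 After 24 hours of induction with 100 μM copper sulfate, psi-negative yeast expressing peptides of 20 random codons fused to Sup35N were grown for 7 days at 30°C on medium lacking adenine and uracil. Input and output plasmid inserts were sequenced with Illumina, and sequences with under 100 input reads were discarded. Scores for nucleation are the DiMSum log enrichment of output over input reads, centred on the mode score of non-aggregating sequences.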

In the case of GHFGVLMSGSTGGNLANQSG, the amyloid nucleation score result is “inactive”.

LISTWNMAYSLSLIMMDHHS: the amyloid nucleation score result was “inactive”.

VIFLGAYHNSLLNRAMHSGH showed an amyloid nucleation score of 1.45 ± 0.12.

With CGTTVGFLMLYLSCIRWL, the amyloid nucleation score result is “inactive”.

As for LEYYAS, the amyloid nucleation score entry was “inactive”.

With FDDATEKFIS, the amyloid nucleation score result was “inactive”.

With RSIVNSRALGLAADRRLEFS, the amyloid nucleation score entry is “inactive”.

As for SVSVVKSSEILSSMGPCGGT, the amyloid nucleation score entry is “inactive”.

NVYVSSRVYISK returned an amyloid nucleation score of 2.88 ± 0.06.

For the substance WGRISNAHG, the amyloid nucleation score entry is “inactive”.

Take SFSMKKGQHQLIS: the amyloid nucleation score result is “inactive”.

With FSRPLPTPESYRW, the amyloid nucleation score is -0.287 ± 1.3.

Take GGRLSLKESWKAGFSIAERF: the amyloid nucleation score entry was “inactive”.

The substance KVICVLFKIMKLF showed an amyloid nucleation score of 0.442 ± 0.18.

Consider RETLS, for which the amyloid nucleation score result was “inactive”.

In the case of GWAGGSLNARMSRWF, the amyloid nucleation score came to 0.881 ± 0.17.

For the substance GFETLYIYAVRGN, the amyloid nucleation score entry was “inactive”.

As for FSTFRLSRLCHRDRRSHARQ, the amyloid nucleation score result was “inactive”.

Turning to DFIDLLLSSDEIMKS, the amyloid nucleation score entry was “inactive”.

On to RTLFYFLDDSQFVLV, for which the amyloid nucleation score result was “inactive”.

Regarding NSLVGLVCKTGSSFTRNKVV, the amyloid nucleation score was -0.104 ± 0.75.

As for YFCLQNFRVFLGRYMIHNYL, the amyloid nucleation score entry was “inactive”.

SIKSLTIDSCLTS displayed an amyloid nucleation score of 0.809 ± 0.2.

MPFIPHLDGS: the amyloid nucleation score result was “inactive”.

As for AGSPCWSNHHYMTKRDCRFS, the amyloid nucleation score result was “inactive”.

As to GGRYTVAAEVKVTHAYATG, the amyloid nucleation score entry is “inactive”.

For LSELYHTFYSVVNGGHVLMI, the amyloid nucleation score result is “inactive”.

In the case of PIVRWVSSLLYVVRWLPRLA, the amyloid nucleation score result was “inactive”.

In the case of NLMEHSIGLYAYYYSLNDCS, the amyloid nucleation score result was “inactive”.

Regarding DSISISY, the amyloid nucleation score entry was “inactive”.

In the case of VCGILAISGLLT, the amyloid nucleation score entry is “inactive”.

For YRWGISLIEMEQGGVVF, the amyloid nucleation score entry is “inactive”.

For ALDIDWFYWYRHQSSPSFFY, the amyloid nucleation score entry was “inactive”.

Turning to ADFTRGGT, the amyloid nucleation score result is “inactive”.

Turning to LPSGFLGPLIPVESQIPRTQ, the amyloid nucleation score result is “inactive”.

Regarding VFAISV, the amyloid nucleation score result was “inactive”.

In the case of AGIRYTNYFSSMGSIGGDGV, the amyloid nucleation score entry is “inactive”.

With GPHIVRYERTFNG, the amyloid nucleation score entry was “inactive”.

RTNDHVNW: the amyloid nucleation score result was “inactive”.

On to LKTVSMSYD, for which the amyloid nucleation score entry is “inactive”.

For the substance YGVYINEAVEVRGPHAYMTS, the amyloid nucleation score entry was “inactive”.

Regarding IHFLNWSARM, the amyloid nucleation score result is “inactive”.

Regarding SLRNRLVVTSVDYRMHLRRG, the amyloid nucleation score entry is “inactive”.

CFTLFVSQYVNDLDDYKRNW returned an amyloid nucleation score of 1.34 ± 0.092.

For the substance WSISIGYFP, the amyloid nucleation score entry was “inactive”.

On to VRGKRTSLWDIKVDYSPDTV, for which the amyloid nucleation score entry is “inactive”.

For PVLSDNYLTDFAFCYQYYMS, the amyloid nucleation score result was “inactive”.

With ENALRLRQVGQILGLNCRIV, the amyloid nucleation score entry is “inactive”.

For EWKVLLPNLLYPSYYAQNR, the amyloid nucleation score result is “inactive”.

Turning to CHAIASVVSEYNGPLVVTVI, the amyloid nucleation score result was “inactive”.

On to DSSKVGFSALVNVSTIA, for which the amyloid nucleation score entry was “inactive”.

On to WHSKKLRICHLGCFVQTDWV, for which the amyloid nucleation score entry is “inactive”.

For FRKETNSSHGLMKWAKEQ, the amyloid nucleation score result is “inactive”.

Take VISFLMKLRWYCTVHGSGGM: the amyloid nucleation score entry was “inactive”.

Take YHGVLRWSKSTFAAHYPVTA: the amyloid nucleation score entry is “inactive”.

In the case of YRSKNFMIQRWTRVVLRAWM, the amyloid nucleation score result is “inactive”.

For the substance KICRIYAMGVLLSDTVSTMS, the amyloid nucleation score result is “inactive”.

For the substance SDAVSIWGQKSNISSICNDS, the amyloid nucleation score entry was “inactive”.

In the case of GSFGYNCVKFHSDGFQAGRG, the amyloid nucleation score result was “inactive”.

On to IAGLSNNTTDGLLRISHRYL, for which the amyloid nucleation score result was “inactive”.

RKSGYYLIVMRALNREPTPV came in with an amyloid nucleation score of -0.363 ± 1.4.

LESEASGYKMSKVRVAQCRR: the amyloid nucleation score result is “inactive”.

For the substance DSNLRLYALTRCHKALHVMS, the amyloid nucleation score entry is “inactive”.

Regarding INFVYSHM, the amyloid nucleation score is 1.75 ± 0.12.

Regarding LKSIYLLKWCPTSQLRTTSV, the amyloid nucleation score result is “inactive”.

Consider TIVNGNVEFGMKLEWEHGCI, for which the amyloid nucleation score result was “inactive”.

For the substance SVLHLWGLDYFNGEYTMRKG, the amyloid nucleation score worked out at 1.02 ± 0.17.

KCTFFDTCVTQTCLFNMFGC had an amyloid nucleation score of 2.34 ± 0.063.

Consider VIHQIMIMYGVYPASMKLFF, for which the amyloid nucleation score was determined as 1.77 ± 0.098.

In the case of LVSLLVWPYLAWCQGCYSVE, the amyloid nucleation score entry is “inactive”.

On to NTSISGSSM, for which the amyloid nucleation score result is “inactive”.

On to NAAGCSVSGCIG, for which the amyloid nucleation score result is “inactive”.

In the case of VLIMPA, the amyloid nucleation score result was “inactive”.

For the substance ELPLSSCNRCGECYGLAIVA, the amyloid nucleation score entry is “inactive”.

For VVDFSTYWY, the amyloid nucleation score result was “inactive”.

For the substance WWMYSALGMYTDHEFACDVA, the amyloid nucleation score result is “inactive”.

For YELPDWSRYKQFVLLG, the amyloid nucleation score result is “inactive”.

SMGKCRFRCVNIIFYWRWIH showed an amyloid nucleation score of 1.25 ± 0.14.

Take AVCWLRMTYGLRLEVGSPVD: the amyloid nucleation score result is “inactive”.

With FASSDC, the amyloid nucleation score entry is “inactive”.

Consider KMLQLVVGIRILVNRMSWSR, for which the amyloid nucleation score entry was “inactive”.

HLCDFPLEVKTLFFLL yielded an amyloid nucleation score of 0.508 ± 0.17.

In the case of FLIIDAVLEPVGLLFFTKFS, the amyloid nucleation score entry is “inactive”.

Turning to LVRSNGC, the amyloid nucleation score entry is “inactive”.

For RYNGSTTGSRLYMLLSMSLN, the amyloid nucleation score entry was “inactive”.

Take AENLVWRVMAYSARSTADYG: the amyloid nucleation score entry was “inactive”.

Regarding CRWNVNNFPHLFITKMMFRY, the amyloid nucleation score entry was “inactive”.

The substance IVFEMLPWPVG gave an amyloid nucleation score of -0.435 ± 1.9.

As to LCSGVHHFVRNTIVKGVCDG, the amyloid nucleation score result is “inactive”.

ASAYGSSLYSRFTVEYNSII displayed an amyloid nucleation score of 0.223 ± 0.38.

NLFGC: the amyloid nucleation score result is “inactive”.

On to NHNPVCGVDNRMKVVRLYYV, for which the amyloid nucleation score result was “inactive”.

For the substance KVIKDNLEVCFLKSMWC, the amyloid nucleation score result is “inactive”.

Consider MNKFLSVAIQGIYVERNAHV, for which the amyloid nucleation score came to 1.34 ± 0.11.

For WMNGISKL, the amyloid nucleation score entry was “inactive”.

FGTDDEDVKCNVMTALCRIW: the amyloid nucleation score result was “inactive”.

GFKFKYSYRIDLWEGHWVVR: the amyloid nucleation score entry was “inactive”.

With EVVAAYHPATDTSDRERKAL, the amyloid nucleation score result was “inactive”.

On to YWFFIIIFNNIHSADGFIVS, for which the amyloid nucleation score entry was “inactive”.

In turn, VWMIPISCKSQFLFEWYGHY came in with an amyloid nucleation score of 1.12 ± 0.18.

Consider VCGDRKIFNHADVVYRMGRS, for which the amyloid nucleation score result was “inactive”.

As to MWITIS, the amyloid nucleation score entry was “inactive”.

In the case of QGSHRGMKITGISWTVLGYW, the amyloid nucleation score entry is “inactive”.

In the case of LVLSWVITEVMDRVWRGSRG, the amyloid nucleation score entry was “inactive”.

As to MTGDPGQFNAGDRLM, the amyloid nucleation score entry was “inactive”.

Consider VQGIRFRELFGRPAVRVVWH, for which the amyloid nucleation score entry is “inactive”.

In turn, NSHWWCSGFVSVVKIVAEFG came in with an amyloid nucleation score of 1.23 ± 0.1.

As for FGFFWP, the amyloid nucleation score entry is “inactive”.

Turning to YVCGQSG, the amyloid nucleation score entry was “inactive”.

For the substance WCARSTWKISIEY, the amyloid nucleation score entry was “inactive”.

LSPGTFCRVDSTPVWVNACP had an amyloid nucleation score of -0.294 ± 0.47.

For PYSIVSGPRIFYGCYHSFI, the amyloid nucleation score result was “inactive”.

As for CLLNGDLHVEGWTLV, the amyloid nucleation score result was “inactive”.

LSKQIVIRINSNNCNGSVFF: the amyloid nucleation score turned out to be 2.7 ± 0.049.

On to NPSQSRSASWQHSYHRISGL, for which the amyloid nucleation score entry was “inactive”.

Consider SMDNFL, for which the amyloid nucleation score result was “inactive”.

In the case of DLYQPDS, the amyloid nucleation score result is “inactive”.

Substance NMRVCCIGNSFSMGYLICWY returned an amyloid nucleation score of 2.47 ± 0.057.

FPDIDLLLLWTHQRDRRSWF had an amyloid nucleation score of 0.018 ± 0.45.

Take YWVRNVLNS: the amyloid nucleation score result was “inactive”.

For WGNLCQSGALCCQEGC, the amyloid nucleation score entry was “inactive”.

Turning to HRYASVGSTYWGYKVDLLWC, the amyloid nucleation score entry is “inactive”.

Turning to VGVFV, the amyloid nucleation score entry is “inactive”.

Turning to QLVVRCPCYNETVG, the amyloid nucleation score result was “inactive”.

For AIERIFHCGETVIFMTGHLL, the amyloid nucleation score result is “inactive”.

On to LVKTCRYRGSDLSVLVGVRI, for which the amyloid nucleation score entry was “inactive”.

For TGWSWISLYWLCSNMVIVNR, the amyloid nucleation score entry is “inactive”.

In the case of DLDGVPTHSVVERMKTWLDT, the amyloid nucleation score entry was “inactive”.

TRRPAQFVGPI yielded an amyloid nucleation score of 0.645 ± 0.16.

As for MPVSYAG, the amyloid nucleation score entry was “inactive”.

As for IFVSCCLLRLSAGWVVKLIR, the amyloid nucleation score result was “inactive”.

For the substance GCFSCVCLP, the amyloid nucleation score result was “inactive”.
